Measured values: US20230137139A1, “BIOSYNTHESIS OF CANNABINOIDS AND C[…]” (priority 2020, published 2023)
Where a chain is given by its changes, count along the chain named.

B1: t861566 (protein)
chain: MGNTTSIAGRDCLVSALGGNSALAAFPNQLLWTADVHEYNLNLPVTPAAITYPETAEQIAGIVKCASDYDYKVQARSGGHSFGNYGLGGTDGAVVVDMKHFNQFSMNDQTYEAVIGPGTTLNDVDIELYNNGKRAMAHGVCPTIKTGGHFTIGGLGPTARQWGLALDHVEEVEVVLANSSIVRASNTQNQDVFFAVKGAAADFGIVTEFKVRTEPAPGLAVQYSYTFNLGSTAEKAQFVKDWQSFISAKNLTRQFYNNMVIFDGDIILEGLFFGSKEQYDALGLEDHFAPKNPGNILVLTDWLGMVGHALEDTILKLVGNTPTWFYAKSLGFRQDTLIPSAGIDEFFEYIANHTAGTPAWFVTLSLEGGAINDVAEDATAYAHRDVLFWVQLFMVNPLGPISETTYEFTDGLYDVLARAVPESVGHAYLGCPDPRMENAPQKYWRTNLPRLQELKEELDPKNTFHHPQGVIPA
B2: t861587 (protein)
chain: B1 chain
B3: t861554 (protein)
chain: MGNTTSIAAGRDCLISAVGAANVAFQDQLLYQATAVQPYNLNIPVTPAAVTYPQSADEIAAVVKCASEYGYKVQARSGGHSFGNYGLGGQDGAIVIEMKHFSQFSMDESTFIATIGPGITLGDLDTDLYNAGHRAMAHGICPTIRTGGHLTVGGLGPTARQWGLALDHVEEVEVVLANSSIVRASDTQNQDLFFAIKGAAASFGIVTEFKVRTEQAPGMAVQYSYTFHLGTSAEKAKFVKDWQAFIAQENLTWKFYTNLVIFDDQIILEGIYFGTKEEYDSLGLEQRFPPTDAGTVLILTDWLAMIGHGLEDTILKLVGDTPTWFYAKSLGFTPRALIPDSAIDEFFDYIHENNPGTLAWFVTLSLEGGAINAVPEDATAYGHRDVLFWFQLFVINPLGPISQTTYGFADGLYDVLAQAVPESASHAYMGCPDPRMPNAQRAYWRSNLPKLEELKGYLDPEDIFHNPQGVVPS
B4: t861574 (protein)
chain: MGNTTSIAGRDCLISALGGNSALAAFPNELLWTADVHEYNLNLPVTPAAITYPETAEQIAGIVKCASDYDYKVQARSGGHSFGNYGLGGADGAVVVDMKHFTQFSMDDETYEAVIGPGTTLNDVDIELYNNGKRAMAHGVCPTIKTGGHFTIGGLGPTARQWGLALDHVEEVEVVLANSSIVRASNTQNQDVFFAVKGAAANFGIVTEFKVRTEPAPGLAVQYSYTFNLGSTAEKAQFVKDWQSFISAKNLTRQFYNNMVIFDGDIILEGLFFGSKEQYDALGLEDHFAPKNPGNILVLTDWLGMVGHALEDTILKLVGNTPTWFYAKSLGFRQDTLIPSAGIDEFFEYIANHTAGTPAWFVTLSLEGGAINDIAEDATAYAHRDVLFWVQLFMVNPLGPISDTTYEFTDGLYDVLARAVPESVGHAYLGCPDPRMEDAQQKYWRTNLPRLQELKEELDPKNTFHHPQGVMPA
B5: t861558 (protein)
chain: B4 chain with I62V
B6: t861590 (protein)
chain: B4 chain with I62V
B7: t861580 (protein)
chain: MGQTPSSPLADCLNAVCNGRDNCVAFPSAPLYQISWVDRYNLDIEVEPIAVTRPETAEDVSGFVKCAAAHNIKVQAKSGGHSYANYGLGGEDGELVVDLRNFQDFSIDTNTWQATFGAGHKLDDVTEKLHKNGKRAISHGTCPGVGIGGHATIGGLGPESRMWGSCLDHVIGVEVVTADGSIVHASDTENSDLFFALKGAGASFGIVTSFVVKTRPEPGSVVQYSYSVTFAKHADLSPVFRQWQELVMDPGLDRRFGTEFTMHELGVIISGTFYGTDEEFQATGIPDRIPKGKISVVFDDWMAVIAKHAEEAALSLSSISSAFTARSLAFRREDKISPETITNLMNYIDSADRGTLVWFLIFDATGGAISDVPTNATAYSHRDKVMYCQGYGVGIPTLNQQTKDFLSGIINTIQSGAGNTLTTYPGYVDPALTNPQESYWGPNIDTLRAIKSQWDPNDIFHNPQSVRPAAVAA
modifications: Monosporascus sp. mg162
B8: t861579 (protein)
chain: MGNTTSIAAGRDCLVSAVGPAHVTFQDALLYQTTAVDPYNLNIPVTPAAVTYPQSAEEIAAVVKCASDYDYKVQARSGGHSFGNYGLGGQNGAIVVDMKHFSQFSMDESTFVATIGPGTTLGDLDTELYNAGGRAMAHGICPTIRTGGHLTVGGLGPTARQWGLALDHIEEVEVVLANSSIVRASNTQNQDILFAVKGAAASFGIVTEFKVRTQEAPGLAVQYSFTFNLGSPAQKAKLVKDWQAFIAQENLSWKFYSNLVIFDGQIILEGIFFGSKEEYDELDLEKRFPTSEPGTVLVLTDWLGMIGHALEDTILKLVGDTPTWFYAKSLGFTPDTLIPDSAIDDFFDYIHKTNAGTLAWFVTLSLEGGAINSVSEDATAYGHRDVLFWFQVFVVNPLGPISQTTYDFTNGLYDVLAQAVPESAGHAYLGCPDPKMPDAQRAYWRSNLPRLEDLKGDLDPKDTFHNPQGVQVGP
B9: t861571 (protein)
chain: B4 chain with A25V, E57A, I62V, I374V, L398V
B10: t861561 (protein)
chain: MGNTTSIAAGRDCLISAVGGNAAHVAFQDQLLYQATAVDVYNLNIPVTPAAVTYPQSADEVAAVVKCASEYDYKVQARSGGHSFGNYGLGGQNGAIVVDMKHFSQFSMDESTYTATIGPGITLGDLDTELYNAGHRAMAHGICPTIRTGGHLTIGGLGPTARQWGLALDHVEEVEVVLANSSIVRASETQNQDVLFAVKGAAASFGIVTEFKVRTEQAPGLAVQYSYTFNLGTPAEKAKLLKDWQAFIAQEDLTWKFYSNMVIFDGQIILEGIFFGSKEEYDALDLEKRFPTSEPGTLLVLTDWLGMVGHSLEDVILRLVGNTPTWFYAKSLGFTPRTLIPDSAIDRFFDYIHETNAGTLAWFVTLSLEGGAINAVPEDATAYGHRDVLFWVQIFMVNPLGPISQTIYDFADGLYDVLAQAVPESAEHAYLGCPDPKMPDAQRAYWRGNLPRLEELKGEFDPKDTFHNPQGVSVAV

Tested on: CBCA production
Test: In vivo TS activity assay, Example 4 CBCAS enzymes with and without signal peptides, no pH adjustment
Format: cell-based
Details: strains with (Y) or without (N) N-terminal and C-terminal signal peptides; no pH adjustment at Day 4; S. cerevisiae
Experimental: An assay to detect TS activity was conducted as follows: each thawed glycerol stock of candidate CBCAS transformants was stamped into a well of YEP+4% dextrose media. Samples were incubated at 30° C. in a shaking incubator for 2 days. A portion of each of the resulting cultures was stamped into a well of YEP+4% galactose+1 mM olivetolic acid (FIG. 1 Structure 6a). Samples were incubated at 20° C. and shaken in a shaking incubator for 4 days. Every 24 hours during those 4 days, 2% galactose and 1 mM olivetolic acid were spiked into the cultures. Sodium citrate buffer adjusted to pH 5.5 was added to each well at a final concentration of 100 mM. Samples were incubated at 20° C. and shaken in a shaking incubator for 2 days. A portion of each of the resulting production cultures was stamped into a well of phosphate buffered saline (PBS). Optical measurements were taken on a plate reader, with absorbance measured at 600 nm and fluorescence at 528 nm with 485 nm excitation. Samples were incubated at 30° C. in a shaking incubator for 2 days. 100% methanol was stamped into the production cultures in half-height deepwell plates. Plates were heat sealed and frozen. Samples were then thawed for 30 min and spun down at 4° C. A portion of the supernatant was stamped into half-area 96 well plates. CBCA, THCA, and CBDA production in the samples was quantified via liquid chromatography-mass spectrometry (LC-MS).
A library of 20 CBCAS enzymes selected from Example 1 and 3 was synthesized, including versions of the CBCAS enzymes with and without the N-terminal MFalpha2 signal peptide (SEQ ID NO: 16) and C-terminal HDEL signal peptide (SEQ ID NO: 17). Each candidate enzyme expression construct was transformed into an S. cerevisiae CEN.PK strain that also expressed a prenyltransferase enzyme capable of catalyzing reaction R^4 in FIG. 2. Strain t861555 expressing the A. niger CBCAS identified in Example 1, carrying both the Mfalpha2 and HDEL signal peptides was included in the library screen as a positive control for enzyme activity. Strain t861565 expressed the same A. niger CBCAS without the Mfalpha2 and HDEL signal peptides.
The strains were screened using the assay described in Example 1 with the following exception: at Day 4 samples were not subjected to a pH adjustment and a further 2 days of incubation at 20° C.

Row | Molecule | Average CBCA
1 | B1 | 61918.09 µg/L
2 | B2 | 82883.01 µg/L
3 | B3 | 5334.71 µg/L
4 | B4 | 38142.03 µg/L
5 | B5 | 27898.00 µg/L
6 | B6 | 55852.93 µg/L
7 | B7 | 0.00 µg/L
8 | B8 | 57912.84 µg/L
9 | B9 | 54271.76 µg/L
10 | B10 | 46161.25 µg/L
